{"source": "paper PMC9324987", "about": "“Comparative Analysis of Catabolic and Anabolic Dehydroshikimate Dehydratases for 3,4-DHBA Production in Escherichia coli” (Microorganisms, 2022)", "molecules": {"B1": {"name": "Qa-4 (Neurospora crassa OR74A) (protein)", "chain": "MPSKLAISSMSLGRCFAGHSLDSKLDAAQRYGYLGIELFYEDLVDVAEHLSNERPSPEGPFVEAQIAAARHILQMCQARGLEVVCLQPFMHYDGLNDRAEHERRLEKLALWIELAHELHTDIIQIPANFLPANQVSDNLDLIVSDLCKVADIGAQALPPIRFAYESLCWSTRVDLWERCWDIVQRVDRPNFGICLDTFNILGRIYADPTSPSGRTPNAKEAVRKSIANLVSRVDVSKVFYVQVVDAERLSKPLLPGHPYYNPEQPARMSWSRNCRLFYGETEYGAYLPVKEVARALFHGIGFEGWVSLELFNRRMSEEGPEVPEELAMRGAISWAKLVQDLRIPVEGPLVTMPRVSASL", "notes": "full length, C-terminal His6 (pET22b), codon-optimised synthetic gene, made in E. coli BL21(DE3); primer-encoded N-terminus MPSKLAISS"}, "B2": {"name": "QsuB (Corynebacterium glutamicum ATCC 13032) (protein)", "chain": "MRTSIATVCLSGTLAEKLRAAADAGFDGVEIFEQDLVVSPHSAEQIRQRAQDLGLTLDLFQPFRDFEGVEEEQFLKNLHRLEEKFKLMNRLGIEMILLCSNVGTATINDDDLFVEQLHRAADLAEKYNVKIAYEALAWGKFVNDFEHAHALVEKVNHKALGTCLDTFHILSRGWETDEVENIPAEKIFFVQLADAPKLSMDILSWSRHHRVFPGEGDFDLVKFMVHLAKTGYDGPISLEIFNDSFRKAEVGRTAIDGLRSLRWLEDQTWHALNAEDRPSALELRALPEVAEPEGVDFIEIATGRLGETIRVLHQLGFRLGGHHCSKQDYQVWTQGDVRIVVCDRGVTGAPTTISAMGFDTPDPEAAHARAELLRAQTIDRPHIEGEVDLKGVYAPDGVELFFAGPSPDGMPEWLPEFGVEKQEAGLIEAIDHVNFAQPWQHFDEAVLFYTALMALETVREDEFPSPIGLVRNQVMRSPNDAVRLLLSVAPEDGEQGDFLNAAYPEHIALATADIVAVAERARKRGLDFLPVPENYYDDVQARFDLPQEFLDTLKENHLLYDRDENGEFLHFYTRTLGTLFFEVVERRGGFAGWGETNAPVRLAAQYREVRDLERGIPN"}}, "key": {"[1]": {"biological_target": "T1, QsuB (Corynebacterium glutamicum, UniProt Q8NT86)", "T1 construct": "gene Cgl0422", "T1 sequence (Q8NT86 1-618)": "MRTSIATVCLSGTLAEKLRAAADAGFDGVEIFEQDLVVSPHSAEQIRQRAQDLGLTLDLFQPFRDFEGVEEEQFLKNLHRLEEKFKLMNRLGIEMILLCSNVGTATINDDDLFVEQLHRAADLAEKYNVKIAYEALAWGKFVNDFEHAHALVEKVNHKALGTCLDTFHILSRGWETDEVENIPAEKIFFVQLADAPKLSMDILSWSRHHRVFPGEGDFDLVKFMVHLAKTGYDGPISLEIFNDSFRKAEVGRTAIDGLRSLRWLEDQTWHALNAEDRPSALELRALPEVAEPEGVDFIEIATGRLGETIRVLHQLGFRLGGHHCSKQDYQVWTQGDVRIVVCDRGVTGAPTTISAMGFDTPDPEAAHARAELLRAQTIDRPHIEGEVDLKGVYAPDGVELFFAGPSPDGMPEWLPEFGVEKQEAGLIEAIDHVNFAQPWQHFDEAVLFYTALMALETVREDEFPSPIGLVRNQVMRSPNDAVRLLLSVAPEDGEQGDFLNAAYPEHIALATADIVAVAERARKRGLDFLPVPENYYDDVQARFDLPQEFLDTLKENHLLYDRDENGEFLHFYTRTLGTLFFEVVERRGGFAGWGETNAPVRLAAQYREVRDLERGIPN", "assay": "[…],4-DHBA formation at […] nm, product inhibition", "assay_type": "biochemical"}, "[2]": {"biological_target": "T2, Qa-4 (Neurospora crassa, UniProt P07046)", "T2 construct": "full length, C-terminal His6 (pET22b), codon-optimised synthetic gene, made in E. coli BL21(DE3); primer-encoded N-terminus MPSKLAISS", "T2 sequence (P07046 1-359)": "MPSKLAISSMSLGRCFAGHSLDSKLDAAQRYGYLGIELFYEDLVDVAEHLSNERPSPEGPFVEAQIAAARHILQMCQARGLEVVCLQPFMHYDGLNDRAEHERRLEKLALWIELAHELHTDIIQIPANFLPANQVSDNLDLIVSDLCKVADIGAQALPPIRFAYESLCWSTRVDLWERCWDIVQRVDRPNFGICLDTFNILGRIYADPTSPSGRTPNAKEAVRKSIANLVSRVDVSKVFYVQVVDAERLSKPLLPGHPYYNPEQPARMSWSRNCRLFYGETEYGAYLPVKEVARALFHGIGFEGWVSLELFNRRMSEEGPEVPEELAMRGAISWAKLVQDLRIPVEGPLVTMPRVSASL", "assay": "[…],4-DHBA formation at […] nm, product inhibition", "assay_type": "biochemical"}, "[3]": {"biological_target": "T3, AsbF (Bacillus thuringiensis, UniProt A0A1B1L4G3)", "T3 construct": "gene CAB88_09740", "T3 sequence (A0A1B1L4G3 1-280)": "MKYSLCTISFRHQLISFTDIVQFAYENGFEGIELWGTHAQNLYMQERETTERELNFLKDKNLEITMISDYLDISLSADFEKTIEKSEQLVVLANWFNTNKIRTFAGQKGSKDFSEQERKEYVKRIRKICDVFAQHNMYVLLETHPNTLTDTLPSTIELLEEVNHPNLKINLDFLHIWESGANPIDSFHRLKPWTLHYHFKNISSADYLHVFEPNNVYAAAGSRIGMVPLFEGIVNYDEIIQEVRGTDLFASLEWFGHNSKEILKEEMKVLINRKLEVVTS", "assay": "[…],4-DHBA formation at […] nm, product inhibition", "assay_type": "biochemical", "settings": "1 mM DHS, 10 mM Mg2+, 0.1 M Tris/HCl pH 7.5, 20 °C, 150 nM enzyme"}, "[4]": {"substrate": "O=C(O)C1=CC(=O)[C@@H](O)[C@H](O)C1", "assay": "purified protein", "assay_type": "biochemical, Neurospora crassa", "settings": "10 mM Mg2+, 0.1 M Tris/HCl pH 7.5, 20 °C, 0.1-5 mM DHS"}, "[5]": {"substrate": "O=C(O)C1=CC(=O)[C@@H](O)[C@H](O)C1", "assay": "purified protein", "assay_type": "biochemical, Corynebacterium glutamicum", "settings": "10 mM metal salt (preferred metal, Co2+), 0.1 M Tris/HCl pH 7.5, 20 °C, 0.1-5 mM DHS"}}, "data": [{"molecule": "O=C(O)c1ccc(O)c(O)c1", "note": "[3,4-DHBA]", "values": [{"measurement": "IC50", "setting": "[1]", "result": "~350", "unit": "µM"}, {"measurement": "IC50", "setting": "[2]", "result": "~640", "unit": "µM"}, {"measurement": "IC50", "setting": "[3]", "result": "~80", "unit": "µM"}]}, {"molecule": "B1", "values": [{"measurement": "Km", "setting": "[4]", "result": "598 ± 16", "unit": "µM"}, {"measurement": "kcat", "setting": "[4]", "result": "218.6 ± 1.1", "unit": "s⁻¹"}, {"measurement": "kcat/Km", "setting": "[4]", "result": "366000 ± 68800", "unit": "M⁻¹ s⁻¹"}]}, {"molecule": "B2", "values": [{"measurement": "Km", "setting": "[5]", "result": "961 ± 77", "unit": "µM"}, {"measurement": "kcat", "setting": "[5]", "result": "60.8 ± 0.9", "unit": "s⁻¹"}, {"measurement": "kcat/Km", "setting": "[5]", "result": "63300 ± 11700", "unit": "M⁻¹ s⁻¹"}]}]}
